US10357554B2, “AMA-1 epitopes, antibodies, compositions, and methods of making and using the same” (THE UNITED STATES OF AMERICA, AS REPRESENTED BY THE …, dated 2019)
Like-named read-outs stand apart in the source and are kept apart here.

B1: Monoclonal 1B10 (antibody, V domains shown)
VH: EVQLQESGPGLVQPSQSLSITCTVSGFSLNMYGVHWVRQSPGKGLEWLGVIWSGGTTDYNAAFISRLSINRDNSKSQVFFKMNSLQTDDTAIYYCVRNNGYYVDAMDYWGQGTSVAVSS
VL: DVVMTQTPLSLPVSLGDQASISCRSSQSLVHSNGNTYLHWYLQRPGQSPKLLIYKVSNRFSGVPDRFSGSGSGTDFTLKISRVEAEDLGVYFCSQSTLGPTFGGGTKLEMQR
B2: Monoclonal 4E8 (antibody, V domains shown)
VH: EVQLQESGPGLVQPSQSLSITCTVSDFSLIMYGVHWVRQSPGKGLEWLGVIWSGGSTDYNAAFISRLSISKDNSKSQVFFKMNSLQADDTAIYYCARNNGYYVDAMDYWGQGTSVTVSS
VL: DVVMTQTPLSLPVSLGDQASISCRSSQSLVHNNGNTYLHWYLQKPGQSPKLLIYKVSNRFFGVPDRFSGSGSGTDFTLKISRVEAEDLGVYFCSQSTHVPTFGGGTKLEIKR
B3: Monoclonal 4E11 (antibody, V domains shown)
VH: EVQLQESGPGLVRPSQSLSITCTVSGFSLPLYGVHWVRQSPGKGLEWLGVIWSGGSTDYNAAFVSRLSISKDNSKSQVFFEMNSLQADDTATYYCARNNGYYVDAMDYWGQGTSVTVSS
VL: DVVMTQTPLSLPVSLGDQASISCRSSQSLVHSNGNTYLHWYLQKPGQSPKLLIFKVSNRFSGVPDRFSGSGSGTDFTLQISRVEAEDLGFYFCSQSTHVPTFGGGTKLEIKR
B4: Monoclonal 1E10 (antibody, V domains shown)
VH: EVQLQESGAELAKPGASVKLSCKASGYTFTNYLMHWIKQRPGQGLEWIGYINHGSGYTNYNQKFIDRATLTADKSSSTAYMQLRSLTYEDSAVYYCVHGYFDVWGTGTTVTVSS
VL: QIVLTQSPTIMSASPGEKVTMTCSASSSVTYMHWYQQKPGTSPKRWIYDTSKLASGVPARFSGSGSGTSYSLTISSMEAEDAATYYCHQRSSYPTFGGGTKLEIKR

What was measured:
[1] = biological target: AMA-1 on P. falciparum 3D7 strain parasites (Plasmodium falciparum)
[2] = biological target: AMA-1 on P. falciparum 3D7 strain parasites (Plasmodium falciparum); remark: listed apart in the source
7 AMA-1 allelic proteins = experiment: dot blot against 7 AMA-1 allelic proteins
[3] = biological target: T1, AMA-1 on P. falciparum 3D7 strain parasites (Plasmodium falciparum); experiment: cell-based or functional assay
T1 chain: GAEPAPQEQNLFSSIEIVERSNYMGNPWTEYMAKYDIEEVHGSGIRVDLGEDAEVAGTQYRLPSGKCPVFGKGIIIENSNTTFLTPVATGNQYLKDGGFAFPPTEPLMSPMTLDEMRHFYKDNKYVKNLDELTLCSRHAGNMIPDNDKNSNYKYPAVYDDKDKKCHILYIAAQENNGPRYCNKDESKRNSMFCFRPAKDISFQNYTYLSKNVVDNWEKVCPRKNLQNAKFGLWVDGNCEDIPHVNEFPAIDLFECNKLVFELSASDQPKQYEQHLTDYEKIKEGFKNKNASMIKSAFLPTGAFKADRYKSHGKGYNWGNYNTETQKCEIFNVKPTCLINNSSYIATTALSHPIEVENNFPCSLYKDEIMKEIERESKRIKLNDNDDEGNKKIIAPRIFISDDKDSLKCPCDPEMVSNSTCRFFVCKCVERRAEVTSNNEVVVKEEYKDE

[4] = biological target: T1, AMA-1 on P. falciparum 3D7 strain …; experiment: cell-based or functional assay

Molecule | GIA at 1 mg/ml against the 3D7 target strain: Inhibition [1] [%] | IC30 concentration in GIA against 3D7 target parasites [2] [µg/mL] | Strain reactivity (of 7 AMA-1 allelic proteins) (7 AMA-1 allelic proteins) | IC30 concentration in GIA against 3D7 target parasites [3] [µg/mL] | GIA at 1 mg/ml against the 3D7 target strain: Inhibition [4] [%]
rat mAb 4G2dc1 (antibody) | 22 | 1800 | – | – | –
B1 | – | – | 5 | 150 | 65
B2 | – | – | 6 | 150 | 67
B3 | – | – | 5 | 220 | 62
B4 | – | – | 7 | 1900 | 20
